From the nanobody polyreactivity screen of Harvey et al. (2022)

Assay: yeast display, Sf9 membrane polyspecificity reagent, FACS + sequencing; frameworks hold sequencing errors
Procedure, shortened: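 Genes from sorted yeast were amplified by colony PCR, read by MiSeq 2 × 250 sequencing and filtered on CDR length. These cells carried a synthetic nanobody library in Saccharomyces cerevisiae BJ5465 and were sorted by FACS into low and high (top ~1%) gates on anti-HA and streptavidin fluorescence. Polyreactivity is labelled according to the gate of origin.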

| Sequence | polyreactivity (PSR sort gate) |
| --- | --- |
| QVQLVESGGGLVQAGGSLRLSSAASGIIFKSYAMGWYRPAPGKERELVSAISGGGDTYYAYSVKGRFTISRDNAKNTVNLQMNSLKPEDTAVYYCNTDGSQGTIIAIFVKYDYWGQGTQVTVSS | low polyreactivity |
| QVQLVESGGGIVQAGGSLRLSCAASGFTFSSYAMGWYRQAPGKERELVAAISSGGGSTYYADSVKGRFTISRDNAKNTVYLQMNSLKPEDTAVYYCAASHYYSNGYWGQGTQVTVSS | high polyreactivity |
| QVQLVVSGGGLVQAGGSLRLSCAASGYTFDDYAMAWYRQAPGKERELVAAISRGGSTYYADSVKGRFTISRDNAKNTVYLQMNSLIPEDTSVYYCAAVYRVRKITNDYWGQGTQVTVSS | high polyreactivity |
| QVQLVESGGGLVQAGGSLRLSCAASGLTFRSYTMGWYRQAPGKERELVAAISSGGSTYYADSVKGRFTISRDNAKNTVYLQMNSLKPEDTAVYYCAAPRGHGKYYSWGQGTQVTVSS | high polyreactivity |
| QVKLVESGGGLVQAGCSLRLSCAASGFIFRSYAMGWYRQAPRKERELVAVISRRGVNTHYADSVKGRFTISRDNAKNTVYLQMNSLKPEDTAVYYCAKGLSALGDYWGQGTQVTVSS | high polyreactivity |
| QVQLVESGGGLVQAGGSLRLSCAASGSTFTLYVMGWYRQAPGKERELVAAISSNGGRTYYADSVKGRFTISRDNAKNTVYLQMNSLKPEDTAVYYCAAGKIGRYHYDYWGQGTQVTVSS | high polyreactivity |
| QVQLVESGGGLFQAGGSLRLSCAASGSIFERYTMGWYRQSPGKERELVAAISRSGGRTYYADSVKGRFTISRDNAKNTVYLQMNSLKAEDTAVYYCARTRVASKGYDYWGQGTQVTVSS | high polyreactivity |
| QLQLQEGGGGLVQAGGSLRLSCAASGYISYGDVMGSYRQAPGEERELVASIGLDATTNYADSVKGRFNISRDNAKITVYLQMNSLKPEDTAVYYCAAVVGSGVLCGYWGQGTQMTVSS | high polyreactivity |
| QVQLVESGGGLVQAGGSLRLSCAASGLTFGGYAMGWYRPAPGKERELVAAISWSGGRTYYADSVKGRFTISRDNAKNTVYLQMNSLKPEDTAVYYCAARKLVVNLREDYWGQGTQVTVSS | high polyreactivity |
| QVQLVESGGGLVQAGGSLRLSCAASGSIFGFYMGWYRQAPGKERELVAAISGSGGNTYYADSVKGRFTISRDNAKNTVYLQMNSLKPEDTAVYYCAAVSRHRGWDRYYWGQGTQVTVSS | high polyreactivity |
| QVQLVESGGGLVQAGGSLRLSCAASGSTFPEYAMGWYRQAPGKERELVAAISKRGGRTYYADSVKGRFTISRDNAKNTVYLQMNSLKPEETAVYYCARDSYPHGRARFDYWGQGTQVTVSS | high polyreactivity |
| QVQLEDSGGGLVQAGGSLRLSCAASGRTSVGYVMGWYRQAPGKERELVAAISASGGSTYYADSVKGRFTISRDNAKNTVYLQMNSLKPEDTAVYYCNAPVYVPYDYWGQGTQVTVSS | low polyreactivity |
| QDQLVESGGGLVQAGGSLRLSGAASGRTFRRYAKGWDRQAPGKEREWVATISSGGSTYYADSVKGRFTISRDNAKNTVYLQMNSLKPEDTALYYCAVRYWRAYYRYDYWGQGTQVTVSS | high polyreactivity |
| QVQLVESGGGLVQAGGSLRISCAASGSTFYRNAMGWYRQAPGKERELVARISSRGGRTSYADSVKGRFTISRDNAKNNVYFQMNSLKPEDTAVYYCAADYYVNRIQRYDYWGQGTQVTVSS | high polyreactivity |
| QVQLVESGGGLVQAGCSLRLSCAATGSFFGFYSMGWYRQAPGKEMELVASITISGGSTYYADSVKGRFTISRDNAKNNVYLQMNSLKLEDTAVYFCAAETYAYLFHTYDYWGQGTHVTVSS | low polyreactivity |
| QDQLVDSGGGIVQAGGILSLSCAASGRNIIYNAMGWYRQAPGKERELVAAINRSGVSTHYADSVKGRFTISRDNAKNTVYLQMTSLKPEDTAVYYCASTVYGARSYDYWGQGTQVTLSS | low polyreactivity |
| QVHLVESGVGLVQAGGSLRLSCAASGRIFFANPIGWYRQAPGKERELVAANSRGGRTNYADSVKGRFTISRDNAKNTVYLQMNSLNPEDTAVYYCAAVRLSHAPSYYLYGMDYWGQGTQVTVSS | low polyreactivity |
| QVQRVESGGCLVQAGGSLRLSCAASGYTFGSNAMGWYIQAPGKERELVAAITYGAGRTSYADSVKGRFTISRDNAKNTVYLQMNSLKPEDTAVYYCAAVWGYVIWVDSAVYREYDYWGQGTQVTVSS | high polyreactivity |
| QVQLVESGGGLVQAGGSLRLSCAASVSIFSSYAMGWYRQAPGKERELVAAISSSGDSTDADSVKGRFTISRDNAKNTVYLQMNSLKPEDTAVYYCAVGGAGSDDYWGHGTQVTVSS | low polyreactivity |
| QVQLVDSGGGLVQAGGSLRLSCAASGRIFYSNAMGWYRQAPGKVRELVAAITTSGASTYYADSVKGRFTISRDNAKNTVYLQLISMKPEDTAVYYCATYAVVYPFAMDYWGQGTQVTVSS | low polyreactivity |
| QVQHVESGGGLVQAGGSLRLSCAASGFIFWYYAMGLYRQAPGKERELVADISSGGSTNYADSVKGRFTISRDNAKNTVYLQMNSLKPDDTAVYYCAADTFRRDDYWGQGTQVTVSS | low polyreactivity |
| QVQLVESGGGLVQAGGSLRLSCAASGSISKSYAMGWYRQAPGKERELVAVITSGGNTYYADSVKGRFTISRDNAKNTVYLQMNSLKPEDTAVYYCAADYHWYTEDDYWGQGTQVTVSS | high polyreactivity |

| Sequence | polyreactivity (PSR sort gate) |
| --- | --- |
| QVQLQESGGGLVQAGGSLRLSCAASGTISQEDWMGWYRQAPGKEREFVAAIGLGSNTNYADSLKGRFTMSRDNAKNTVYLQMNSLKPEDTAVYYCAVSVWQYSDHVYRGQGTQVTVSS | low polyreactivity |
| QVQLVESGGGLVQAGGSLRLSCAASGRIFSKYAMGWYRQAPGKERELVASIRWRGDRTYYADSVKGRFTISRDNAKNTVDLQMNSLIPEDTAVYYCAADEPGYGVGYWTYPVVPYDYWGQGTQVTVSS | low polyreactivity |
| QVQLVESGGGLVQAGGSLRLSSAASGSIFSQYDIGWYRPAPGKERQLVAAISSGGSTYYADSVKGRFTISRYNAKNTVYLQMNSLKPEDTAVYYCAAVYYQITTTHYLHLHYDYWGQGTQVTVSS | low polyreactivity |
| QVQLVESGGGLVQAGGSLRLSCAASAGIFVVYGMGWYRQAPGKERELVAAISWRGGSTYYADSVKGRFTISRDNAKNTVYLQMNSLKPEDTAVYYCAADQYYGGYDYWGQGTQVTVSS | low polyreactivity |
| QVQLVESGGGLVQAGGSLRLTCAASGRTFPSYTMGWYRQAPGKERELVAAITWSGGSTYADSVKGRFSISRDNAKNTVYLQMKSLKPEDSAVYYCNAPIIAYDDGGSLVRYGRGDYWGQGTQVTVSS | low polyreactivity |
| QVQLVESGVGLVQAGGSLRLSCAASGRIFAGYAMGWYRQAPGKERELVATISSGGSTYYADSVKGRFTISRDNAKNTVYLQMNSLKPEDTAVYYCAAEYGTRQYSSYYKLFNYWGQGTQVTVSS | low polyreactivity |
| QVQLVESGGGLVQAGGSLRLSCAASGSISYTYAMGWYRQAPGKERELVAAISYSDGITYYADSVKGRFTISRDIAKNTVYLQMNSLKPEDTAVYYCAVEGVYPYYDQSEYDYWGQGTQVTVSS | high polyreactivity |
| QDQPVDSGRCLVQAGGSLRLSCAASGSTFEVYTMGWYRQAPGQERELVAAITKNGGTTYYADSVKGRFTISRDNAKNTVYLLMNSLKPEDTAVYYCAATWPRYGYGYWGQGTQVTVSS | low polyreactivity |
| QVQLQESGGGLVQVGGSLRLTCAASGTIFIYGFLGWNRQAPGKERELVASINLGGITNYADSVKGRFTISRDNANNTVYLQMISLKPEDTAVYFCAAYFVTGQNYGSWGQGTQVTVSS | low polyreactivity |
| QVQLVESGGGLVQAGGSLRLSCAASGSIFKYYAMGWYRQAPGKERELVAAITSGVSTYADSVKGPFTISRDNAKNTVYLQMNSLKPEDTAVYYCAVRVTGPRGDYWGQGTQVTVSS | low polyreactivity |
| QVQLVESGGGLVQAGGSLRLSCAASGSTFDPNAMGWYRQAPGKERELVAAITGRGGSTYYADSVKGRFTISRDTAKNTVYLQMNSLKPEDTAVYYCAAEYLGSIDTSYNYWGQGTQVTVSS | low polyreactivity |
| QVQIVESGGGLVQAGGSHRISCAASGLIFQSNAMGWYRQAPGKESELVAAISTAGSTNYADSVKGRFTISRDNAKNTFYFQMNSLIPQDTAVYYFAAQVSTPYRYPRQMLYDSWGQGTQVTVSS | low polyreactivity |
| QVQLVESAAGLVQAGGSLRLSCAASGITFFQYTMGWYRQAPGKERELVAAISTSGARTYYADSVKGRFTISRDNAKNTVYLQMNSLKPEDTAVYYCAARTWRRPYYRPRYEYWAQGTQVTVSS | high polyreactivity |
| QVQLVESGGGLVQAGGSLRLSCAASGSIFITNAMGWYRQAPGKERELVATITDSGGSTYYADSVKGRFTISRDNAKNTVYLQMNSLKPEDTAVYYGAKDRVYLTRVYHYDYWGQGTQVTVSS | low polyreactivity |
| QVQLVESGGGLVQAGGSLRLSCAASGRTFRIYAMGWYRQAPGKERELVAAITKRGGITYYADSVKGRFTISRDNAKNTVYFQMNSLKPEDTAVYYCNKLPEPYDYDYWGQGTQVTVSS | high polyreactivity |
| QVQHVESGGGLVQAGGSLRLSSAASGSIFTFYAMGWSRQAPGKEMELVADITGRGSRTYYADSVTGRFTISRDNAKNTVYLKMNSLKPEDTAVYYCAAGHDRYYQSEYGYWGQGTQVTVSS | high polyreactivity |
| QVQLVESGGGLVQAGGSLRLSCAASGLTLYYYAMGWYRQAPGKERELVAAINRGGSTYYSDSVKGRFTISRDNEKNTVYLLMNSLKPEDTAVYYCAVDYGVRDLTYYYCGQGTQVTVSS | low polyreactivity |
| QVQLVESGGGLVQAGGSLRLSCAASGSTFEFNDMGWYIQAPGKERELVASIRHSDGSTYYADSVKGRFTISRDNAKNTVYLQMNSLKPEDTAVYYCNKAFQWSGGQVSYDYWGQATQVTVSS | low polyreactivity |
| QVQHVESGGGLVQAGGSLRLSCAASGFTFYGNSMGWYRPAPGKERELVAGISWRGGSTYYADSVKGRFTISRDNAKNTVYLQMNSLKPEDTAVYYCAAYLWTNYYLWEYDYWGQGTQVTVSS | high polyreactivity |
| QVQLVESGGGLVQAGGSLRLSCDASGRIFYYYGMGWYRQAPGKERELVAAISNGGRTYYADSVKGRFTISRDNAKNTVYLQMNSLKPEDTAVYYCAALTRGRGGYDYWGQGTQVTVSS | high polyreactivity |
| KVQLVESGGGLVQAGGSLRLSCAASGSILSPNAMGWYRQAPGKERELVAAINSGGGSTYYADSVKGRFTLSRDNAKNTVYLQMNSLKPEDTAVYYCAADHYYYRSRAYTYIIYDYWGQGTQVTVSS | low polyreactivity |
